The target in this assay is DBD-TSSK2 (myc tagged): human TSSK2 ORF fused with the Gal4 DNA-binding domain (pGBK-TSSK2) (human). The assay can be described thus: cell-based or functional assay.

On to “TSKS deletion mutant lacking the carboxyl terminus and second coiled-coil region, fused with the Gal4 activation domain (pGAD) (from UniProt P04386 768-881)”, for which the alpha-galactosidase activity as percentage of full length TSKS (% reduction against full length TSKS) was found to be 75.
Turning to “TSKS deletion mutant lacking the first 48 amino acids, fused with the Gal4 activation domain (pGAD) (from UniProt Q9UJT2 49-592)”, the alpha-galactosidase activity as percentage of full length TSKS (% of full length TSKS) was found to be 5.

These data come from US20080274117A1.
